Data from patent publication US20210388087A1 (Chugai, published 2021).
Substitutions are numbered along the chain they refer to.

B1: H183/L072 VL Q27F (antibody, name in Kabat numbering, V domains shown)
VH: QVQLVESGGGLVQPGRSLRLSCAASGFTFSNAWMHWVRQAPGKGLEWVAQIKDKGNAYAAYYAPSVKGRFTISRDDSKNSIYLQMNSLKTEDTAVYYCHYVHYASASTVLPAFGVDAWGQGTTVTVSS
VL: DIVMTQSPLSLPVTPGEPASISCQASFELVHMNRNTYLHWYQQKPGQAPRLLIYKVSNRFPGVPDRFSGSGSGTDFTLKISRVEAEDVGVYYCAQGTSVPFTFGQGTKLEIK
notes: Dual-Ig
B2: H183/L072 VL Q27R (antibody, name in Kabat numbering, V domains shown)
VH: B1 VH
VL: B1 VL with F27R
notes: Dual-Ig
B3: H183/L072 VL R29S (antibody, name in Kabat numbering, V domains shown)
VH: B1 VH
VL: B1 VL with F27Q, R34S
notes: Dual-Ig
B4: H183/L072 VL R29P (antibody, name in Kabat numbering, V domains shown)
VH: B1 VH
VL: B1 VL with F27Q, R34P
notes: Dual-Ig
B5: H183/L072 VL Q90S (antibody, name in Kabat numbering, V domains shown)
VH: B1 VH
VL: B1 VL with F27Q, Q95S
notes: Dual-Ig
B6: H183/L072 VL Q90F (antibody, name in Kabat numbering, V domains shown)
VH: B1 VH
VL: B1 VL with F27Q, Q95F
notes: Dual-Ig
B7: H183/L072 VL Q27V (antibody, name in Kabat numbering, V domains shown)
VH: B1 VH
VL: B1 VL with F27V
notes: Dual-Ig
B8: H183/L072 VL R29E (antibody, name in Kabat numbering, V domains shown)
VH: B1 VH
VL: B1 VL with F27Q, R34E
notes: Dual-Ig
B9: H183/L072 VL R29D (antibody, name in Kabat numbering, V domains shown)
VH: B1 VH
VL: B1 VL with F27Q, R34D
notes: Dual-Ig
B10: H183/L072 VL R29L (antibody, name in Kabat numbering, V domains shown)
VH: B1 VH
VL: B1 VL with F27Q, R34L
notes: Dual-Ig
B11: H183/L072 VL Q90A (antibody, name in Kabat numbering, V domains shown)
VH: B1 VH
VL: B1 VL with F27Q, Q95A
notes: Dual-Ig
B12: H183/L072 VL Q27W (antibody, name in Kabat numbering, V domains shown)
VH: B1 VH
VL: B1 VL with F27W
notes: Dual-Ig
B13: H183/L072 VL R29M (antibody, name in Kabat numbering, V domains shown)
VH: B1 VH
VL: B1 VL with F27Q, R34M
notes: Dual-Ig
B14: H183/L072 VL Q27G (antibody, name in Kabat numbering, V domains shown)
VH: B1 VH
VL: B1 VL with F27G
notes: Dual-Ig
B15: H183/L072 VL Q27S (antibody, name in Kabat numbering, V domains shown)
VH: B1 VH
VL: B1 VL with F27S
notes: Dual-Ig
B16: H183/L072 VL Q27T (antibody, name in Kabat numbering, V domains shown)
VH: B1 VH
VL: B1 VL with F27T
notes: Dual-Ig
B17: H183/L072 VL R29F (antibody, name in Kabat numbering, V domains shown)
VH: B1 VH
VL: B1 VL with F27Q, R34F
notes: Dual-Ig
B18: H183/L072 VL R29G (antibody, name in Kabat numbering, V domains shown)
VH: B1 VH
VL: B1 VL with F27Q, R34G
notes: Dual-Ig
B19: H183/L072 VL Q90E (antibody, name in Kabat numbering, V domains shown)
VH: B1 VH
VL: B1 VL with F27Q, Q95E
notes: Dual-Ig
B20: H183/L072 VL R29I (antibody, name in Kabat numbering, V domains shown)
VH: B1 VH
VL: B1 VL with F27Q, R34I
notes: Dual-Ig
B21: H183/L072 VL Q27K (antibody, name in Kabat numbering, V domains shown)
VH: B1 VH
VL: B1 VL with F27K
notes: Dual-Ig
B22: H183/L072 VL R29H (antibody, name in Kabat numbering, V domains shown)
VH: B1 VH
VL: B1 VL with F27Q, R34H
notes: Dual-Ig
B23: H183/L072 VL Q90L (antibody, name in Kabat numbering, V domains shown)
VH: B1 VH
VL: B1 VL with F27Q, Q95L
notes: Dual-Ig
B24: H183/L072 VL Q90D (antibody, name in Kabat numbering, V domains shown)
VH: B1 VH
VL: B1 VL with F27Q, Q95D
notes: Dual-Ig
B25: H183/L072 VL Q90T (antibody, name in Kabat numbering, V domains shown)
VH: B1 VH
VL: B1 VL with F27Q, Q95T
notes: Dual-Ig
B26: H183/L072 VL Q90H (antibody, name in Kabat numbering, V domains shown)
VH: B1 VH
VL: B1 VL with F27Q, Q95H
notes: Dual-Ig
B27: H183/L072 VL R29Q (antibody, name in Kabat numbering, V domains shown)
VH: B1 VH
VL: B1 VL with F27Q, R34Q
notes: Dual-Ig
B28: H183/L072 VL Q90P (antibody, name in Kabat numbering, V domains shown)
VH: B1 VH
VL: B1 VL with F27Q, Q95P
notes: Dual-Ig
B29: H183/L072 VL R29A (antibody, name in Kabat numbering, V domains shown)
VH: B1 VH
VL: B1 VL with F27Q, R34A
notes: Dual-Ig
B30: H183/L072 VL Q27I (antibody, name in Kabat numbering, V domains shown)
VH: B1 VH
VL: B1 VL with F27I
notes: Dual-Ig
B31: H183/L072 VL Q90I (antibody, name in Kabat numbering, V domains shown)
VH: B1 VH
VL: B1 VL with F27Q, Q95I
notes: Dual-Ig
B32: H183/L072 VL R29K (antibody, name in Kabat numbering, V domains shown)
VH: B1 VH
VL: B1 VL with F27Q, R34K
notes: Dual-Ig
B33: H183/L072 VL Q90K (antibody, name in Kabat numbering, V domains shown)
VH: B1 VH
VL: B1 VL with F27Q, Q95K
notes: Dual-Ig
B34: H183/L072 VL Q90N (antibody, name in Kabat numbering, V domains shown)
VH: B1 VH
VL: B1 VL with F27Q, Q95N
notes: Dual-Ig
B35: H183/L072 VL Q90V (antibody, name in Kabat numbering, V domains shown)
VH: B1 VH
VL: B1 VL with F27Q, Q95V
notes: Dual-Ig
B36: H183/L072 VL Q27Y (antibody, name in Kabat numbering, V domains shown)
VH: B1 VH
VL: B1 VL with F27Y
notes: Dual-Ig
B37: H183/L072 VL R29N (antibody, name in Kabat numbering, V domains shown)
VH: B1 VH
VL: B1 VL with F27Q, R34N
notes: Dual-Ig
B38: H183/L072 VL Q90M (antibody, name in Kabat numbering, V domains shown)
VH: B1 VH
VL: B1 VL with F27Q, Q95M
notes: Dual-Ig
B39: H183/L072 VL Q27N (antibody, name in Kabat numbering, V domains shown)
VH: B1 VH
VL: B1 VL with F27N
notes: Dual-Ig
B40: H183/L072 VL Q27H (antibody, name in Kabat numbering, V domains shown)
VH: B1 VH
VL: B1 VL with F27H
notes: Dual-Ig
B41: H183/L072 VL Q90G (antibody, name in Kabat numbering, V domains shown)
VH: B1 VH
VL: B1 VL with F27Q, Q95G
notes: Dual-Ig
B42: H183/L072 VL Q27P (antibody, name in Kabat numbering, V domains shown)
VH: B1 VH
VL: B1 VL with F27P
notes: Dual-Ig
B43: H183/L072 VL Q90W (antibody, name in Kabat numbering, V domains shown)
VH: B1 VH
VL: B1 VL with F27Q, Q95W
notes: Dual-Ig
B44: H183/L072 VL Q27M (antibody, name in Kabat numbering, V domains shown)
VH: B1 VH
VL: B1 VL with F27M
notes: Dual-Ig
B45: H183/L072 VL Q90R (antibody, name in Kabat numbering, V domains shown)
VH: B1 VH
VL: B1 VL with F27Q, Q95R
notes: Dual-Ig
B46: H183/L072 VL Q27L (antibody, name in Kabat numbering, V domains shown)
VH: B1 VH
VL: B1 VL with F27L
notes: Dual-Ig

Biological target: T1, Human CD137 ECD (human)
T1 construct: entry includes C-terminal His-tag and biotin acceptor peptide; also called human CD137 extracellular domain; 4-1BB
Assay: Biacore SPR, vs parent H183/L072

T1 sequence (chain, as listed by the source limits assumed): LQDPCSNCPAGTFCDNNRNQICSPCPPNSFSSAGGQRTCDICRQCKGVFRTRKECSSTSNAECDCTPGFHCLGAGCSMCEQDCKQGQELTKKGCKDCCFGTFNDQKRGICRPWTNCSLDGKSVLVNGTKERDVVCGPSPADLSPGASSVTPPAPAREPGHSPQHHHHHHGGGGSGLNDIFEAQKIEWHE

fold change of affinity [fold]	Binder
0.6	B1
0.9	B2
0.9	B3
0.2	B4
0	B5
0	B6
0.8	B7
0.4	B8
0.3	B9
0.9	B10
0	B11
0.5	B12
0.9	B13
0.9	B14
0.8	B15
0.9	B16
0.7	B17
1.1	B18
0	B19
0.3	B20
0.9	B21
0.8	B22
0	B23

fold change of affinity [fold]	Binder
0	B24
0	B25
0.2	B26
0.9	B27
0	B28
0.8	B29
0.7	B30
0	B31
1.1	B32
0	B33
0	B34
0	B35
0.7	B36
0.9	B37
0	B38
0.8	B39
0.9	B40
0	B41
0.1	B42
0	B43
0.9	B44
0	B45
0.8	B46
